From patent US20040242851A1 (published 2004)

What was measured:
Flt-1-Fc fusion protein [1] = target: T1, Flt-1-Fc fusion protein (UniProt P17948 27-756, limits assumed); assay: BIAcore SPR, Flt-1-Fc immobilized on the chip, antibody injected
T1 construct: Bought from R&D Systems; also called immobilized Flt-1; not shown: Fc
Protocol: (§1) The binding kinetics of the diabody and its parent scFv to KDR and Flt-1 were measured using a BIAcore biosensor (Pharmacia Biosensor). KDR-AP or Flt-1-Fc fusion protein was immobilized onto a sensor chip and soluble antibodies were injected at concentrations ranging from 1.5 nM to 100 nM. Sensorgrams were obtained at each concentration and were analyzed with, BIA Evaluation 2.0, a program to determine the rate constants kon and koff. The affinity constant, Kd, was calculated from the ratio of rate constants koff/kon.

Flt-1-Fc fusion protein [2] = target: T1, Flt-1-Fc fusion protein; assay: blocking ELISA: antibody pre-mixed with Flt-1-Fc, transferred to immobilized PlGF; plate-bound Flt-1-Fc detected with anti-human Fc-HRP, A450
Protocol: The assays followed previously described protocols (Zhu, Z. et al., 1998; Lu, D. et al., 1999). Briefly, various amounts of the diabody or scFv were mixed with a fixed amount of KDR-AP (100 ng) or Flt-1-Fc fusion protein (50 ng) and incubated at RT for 1 h. The mixture were then transferred to 96-well microtiter plates precoated with VEGF₁₆₅ (200 ng/well) or PlGF (200 ng/well) and incubated at RT for an additional 2 h, after which the plates were washed 5 times with PBS. For the KDR-AP assay, the substrate for AP was added, followed by reading of the absorbance at 405 nm to quantify the plate-bound KDR-AP. For the Flt-1-Fc assay, the plate was incubated with a mouse anti-human Fc-HRP conjugate to quantify the plate-bound Flt-1-Fc.

Flt-1-Fc fusion protein [3] = target: T1, Flt-1-Fc fusion protein; assay: direct binding ELISA on immobilized Flt-1, detection with anti-E tag antibody-HRP, A450
Protocol: (§2) Two assays were carried out to determine the dual antigen binding capability of the diabody. First, a cross-linking assay was used to investigate whether the diabody is capable of binding both of its target antigens simultaneously. Briefly, the diabody or its parent scFv were first incubated in a 96-well Maxi-sorp microtiter plate (Nunc, Roskilde, Denmark) precoated with Flt-1-Fc fusion protein (1 μg/ml×[…] per well overnight at 4° C.) at room temperature (RT) for 1 h. The plate was washed three times with PBS containing 0.1% Tween (PBST), followed by incubation with KDR-AP fusion protein at RT for additional 1 h. The plate-bound KDR-AP was then quantified by the addition of AP substrate, p-nitrophenyl phosphate (Sigma, St. Louis, Mo.), followed by reading of the absorbance at 405 nm (Lu, D. et al., 1999). In the second, direct binding assay, various amounts of diabody or scFv were added to KDR or Flt-1 coated 96-well plates and incubated at RT for 1 h, after which the plates were washed 3 times with PBST. The plates were then incubated at RT for 1 h with 100 μl of an anti-E tag antibody-HRP conjugate (Amersham Pharmacia Biotech). The plates were washed, peroxidase substrate added, and the absorbance at 450 nm read following the procedure described previously (Lu, D. et al., 1999).
(§3) The antigen binding efficiency of the diabody was determined on immobilized KDR and Flt-1. […]

[4] = target: T2, soluble fusion protein KDR-alkaline phosphatase (AP) (human, UniProt P35968 20-764); assay: BIAcore SPR, KDR-AP immobilized on the chip, antibody injected
T2 construct: Expressed in stably transfected NIH 3T3 cells; also called KDR-AP; soluble KDR; not shown: alkaline phosphatase (AP)
Protocol: as §1

[5] = target: T2, soluble fusion protein KDR-alkaline …; assay: direct binding ELISA on immobilized KDR, detection with anti-E tag antibody-HRP, A450
Protocol: as §2, §3

[6] = target: KDR on human umbilical vein endothelial cells (HUVEC) (human, UniProt P35968 20-1356); assay: cell-based or functional assay
Sequence of KDR on human umbilical vein endothelial cells (HUVEC) (P35968 20-1356): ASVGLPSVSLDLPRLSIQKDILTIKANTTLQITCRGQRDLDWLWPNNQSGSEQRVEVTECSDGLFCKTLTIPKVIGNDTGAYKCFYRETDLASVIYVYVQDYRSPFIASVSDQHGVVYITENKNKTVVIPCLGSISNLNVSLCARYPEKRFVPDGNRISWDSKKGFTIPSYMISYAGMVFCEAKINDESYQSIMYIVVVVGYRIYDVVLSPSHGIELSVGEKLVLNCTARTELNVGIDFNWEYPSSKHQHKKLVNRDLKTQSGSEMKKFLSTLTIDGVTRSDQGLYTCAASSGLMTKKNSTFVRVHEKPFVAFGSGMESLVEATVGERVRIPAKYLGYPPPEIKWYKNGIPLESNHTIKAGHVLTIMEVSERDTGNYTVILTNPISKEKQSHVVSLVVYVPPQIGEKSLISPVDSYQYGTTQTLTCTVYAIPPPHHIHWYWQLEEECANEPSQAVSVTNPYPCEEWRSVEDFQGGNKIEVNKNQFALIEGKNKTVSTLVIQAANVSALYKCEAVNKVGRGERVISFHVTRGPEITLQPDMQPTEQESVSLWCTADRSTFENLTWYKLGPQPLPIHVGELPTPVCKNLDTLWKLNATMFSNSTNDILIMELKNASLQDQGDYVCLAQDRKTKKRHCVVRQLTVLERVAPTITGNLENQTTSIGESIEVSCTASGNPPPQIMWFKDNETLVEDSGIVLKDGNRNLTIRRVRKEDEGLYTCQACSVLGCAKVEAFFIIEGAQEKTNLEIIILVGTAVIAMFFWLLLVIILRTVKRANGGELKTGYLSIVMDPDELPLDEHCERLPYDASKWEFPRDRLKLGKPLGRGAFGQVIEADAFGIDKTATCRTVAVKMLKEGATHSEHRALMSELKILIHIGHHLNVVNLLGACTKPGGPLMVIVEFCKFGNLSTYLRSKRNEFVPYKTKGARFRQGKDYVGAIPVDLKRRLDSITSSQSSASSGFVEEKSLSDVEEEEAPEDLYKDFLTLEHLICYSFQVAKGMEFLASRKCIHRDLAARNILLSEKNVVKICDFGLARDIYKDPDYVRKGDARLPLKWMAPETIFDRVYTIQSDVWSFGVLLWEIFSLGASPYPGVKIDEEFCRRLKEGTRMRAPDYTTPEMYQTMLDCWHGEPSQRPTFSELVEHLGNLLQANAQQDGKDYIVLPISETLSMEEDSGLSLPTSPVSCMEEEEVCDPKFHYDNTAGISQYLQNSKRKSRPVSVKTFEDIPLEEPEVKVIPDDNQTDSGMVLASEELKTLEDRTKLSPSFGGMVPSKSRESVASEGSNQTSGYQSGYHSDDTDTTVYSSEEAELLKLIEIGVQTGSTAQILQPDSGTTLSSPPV

T2 sequence (P35968 20-764): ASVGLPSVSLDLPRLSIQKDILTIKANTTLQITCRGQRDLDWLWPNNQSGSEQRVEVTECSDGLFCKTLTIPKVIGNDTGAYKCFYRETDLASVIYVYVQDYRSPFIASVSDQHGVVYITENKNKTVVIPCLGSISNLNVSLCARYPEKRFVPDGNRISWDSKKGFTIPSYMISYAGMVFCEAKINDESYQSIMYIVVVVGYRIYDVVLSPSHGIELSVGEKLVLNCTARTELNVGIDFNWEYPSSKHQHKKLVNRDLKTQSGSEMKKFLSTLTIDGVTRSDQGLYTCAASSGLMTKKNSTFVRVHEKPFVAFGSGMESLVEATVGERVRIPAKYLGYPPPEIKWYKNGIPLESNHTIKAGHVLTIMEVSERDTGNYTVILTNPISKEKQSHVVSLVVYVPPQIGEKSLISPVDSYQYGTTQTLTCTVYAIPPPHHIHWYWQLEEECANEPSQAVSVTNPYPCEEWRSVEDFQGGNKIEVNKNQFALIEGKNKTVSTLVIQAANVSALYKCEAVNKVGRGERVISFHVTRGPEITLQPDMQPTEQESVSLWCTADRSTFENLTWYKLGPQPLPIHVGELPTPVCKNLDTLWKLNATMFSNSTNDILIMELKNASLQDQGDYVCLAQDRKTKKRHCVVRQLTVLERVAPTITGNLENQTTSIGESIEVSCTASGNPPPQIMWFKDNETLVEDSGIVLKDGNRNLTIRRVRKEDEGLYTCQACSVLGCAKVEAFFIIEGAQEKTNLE
T1 sequence (P17948 27-756 limits assumed): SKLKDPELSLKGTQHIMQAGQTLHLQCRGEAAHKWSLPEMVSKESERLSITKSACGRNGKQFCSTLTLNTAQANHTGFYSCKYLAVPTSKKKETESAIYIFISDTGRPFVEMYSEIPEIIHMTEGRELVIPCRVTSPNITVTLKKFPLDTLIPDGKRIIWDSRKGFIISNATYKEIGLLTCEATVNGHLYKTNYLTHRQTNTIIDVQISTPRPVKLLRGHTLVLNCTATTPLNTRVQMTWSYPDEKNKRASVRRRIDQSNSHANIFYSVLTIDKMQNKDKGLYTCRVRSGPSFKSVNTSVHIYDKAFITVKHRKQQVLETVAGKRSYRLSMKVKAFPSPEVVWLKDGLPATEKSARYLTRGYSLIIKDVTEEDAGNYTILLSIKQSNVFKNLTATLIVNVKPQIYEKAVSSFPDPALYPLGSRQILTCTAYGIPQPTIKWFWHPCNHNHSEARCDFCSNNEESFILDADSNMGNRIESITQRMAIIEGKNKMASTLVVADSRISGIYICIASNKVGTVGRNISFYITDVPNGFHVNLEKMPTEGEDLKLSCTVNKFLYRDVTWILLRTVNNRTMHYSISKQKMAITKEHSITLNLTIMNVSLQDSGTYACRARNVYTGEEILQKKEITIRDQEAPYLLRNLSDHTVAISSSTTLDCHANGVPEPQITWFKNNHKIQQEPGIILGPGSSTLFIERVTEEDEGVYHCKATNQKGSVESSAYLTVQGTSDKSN

Row | Kd (Flt-1-Fc fusion protein [1]) [nM] | koff (Flt-1-Fc fusion protein [1]) [s⁻¹] | kon (Flt-1-Fc fusion protein [1]) [M⁻¹ s⁻¹] | IC50 (read off the curve) (Flt-1-Fc fusion protein [2]) [nM] | EC50 (read off the curve) (Flt-1-Fc fusion protein [3]) [nM] | Kd [4] [nM] | koff [4] [s⁻¹] | kon [4] [M⁻¹ s⁻¹] | binding result (Flt-1-Fc fusion protein [3]) | EC50 (read off the curve) [5] [nM] | VEGF-stimulated HUVEC mitogenesis ([3H]-TdR incorporation), IC50 [6] [nM] | Binder
1 | 9.8 | 0.00236 | 241000 | ~1 | ~0.6 |  |  |  |  |  |  | scFv 6.12 (scFv, not shown: small tags and cut ends, The soluble scFv from pCANTAB 5E carried a C-terminal E tag (detected with anti-E tag) whose letters the patent does not give; it is left out., VH-(GGGGS)3-VL, expressed from pCANTAB 5E in E. coli) scFv: QVKLQQSGAELVKPGASVKLSCTASGFNIKDTYIHWVKQSPEQGLEWIGRIDPPNDNTKYDPKFQGKATITADTSSNTAYMQLRSLTSEDTAVYYCALPPFYFDYWGHGTTVTVSSGGGGSGGGGSGGGGSDIELTQSPKFMSTSVGDRVSVTCKASQNVDTNVAWYQQKPGQSPKALIYSASYRYSGVPDRFTGSGSGTDFTLTISNVQSEDLAEYFCQQYNSFPYTFGGGTKLEIK
2 |  |  |  |  |  | 1.68 | 0.000121 | 74200 | no binding (tested: about 50 nM) | ~0.4 | ~2 | scFv p1C11 (scFv, soluble form made in E. coli; also called KDR-specific scFv p1C11) scFv: QVKLQQSGAELVGSGASVKLSCTTSGFNIKDFYMHWVKQRPEQGLEWIGWIDPENGDSDYAPKFQGKATMTADSSSNTAYLQLSSLTSEDTAVYYCNAYYGDYEGYWGQGTTVTVSSGGGGSGGGGSGGGGSDIELTQSPAIMSASPGEKVTITCSASSSVSYMHWFQQKPGTSPKLWIYSTSNLASGVPARFSGSGSGTSYSLTISRMEAEDAATYYCQQRSSYPFTFGSGTKLEIK
